Source: patent US20140093973A1
Several values for one entry are separate records, joined by “and”; a condition that tells them apart may be missing. Equal entries are not always repeated. Where two headings read alike, the source gives them in different places. Ends that are not written are not given here. * marks the point of attachment. FITC = O=C1OC2(c3ccc(O)cc3Oc3cc(O)ccc32)c2ccc(NC(=S)*)cc21

Tests used:
[1] = biological target: soluble HLA-A*0201 (sHLA-A*0201) (human); assay: FP saturation isotherm (bound against free pFITC), 425 nM sHLA-A*0201, one-site fit
[2] = biological target: soluble HLA-A*0201 (sHLA-A*0201) (human); assay: FP real-time association kinetics, intercept of kob against ligand concentration
[3] = biological target: soluble HLA-A*0201 (sHLA-A*0201) (human); assay: FP, sHLA-A*0201 titrated against 10 nM FITC-labeled P4, plateau of the fit
[4] = biological target: soluble HLA-A*0201 (sHLA-A*0201) (human); assay: FP equilibrium titration with variable pFITC, 425 nM sHLA-A*0201, 20 C
[5] = biological target: soluble HLA-A*0201 (sHLA-A*0201) (human); assay: FP, pFITC P4 titrated at 425 nM (20 µg/ml) sHLA-A*0201; FPmin = 27.00 mP
[6] = biological target: soluble HLA-A*0201 (sHLA-A*0201) (human); assay: FP kinetics, Kd = koff/kon
[7] = biological target: soluble HLA-A*0201 (sHLA-A*0201) (human); assay: FP, sHLA-A*0201 titrated against 10 nM FITC-labeled P4; the EC50 is an sHLA concentration
[8] = biological target: soluble HLA-A*0201 (sHLA-A*0201) (human); assay: FP real-time association kinetics, 50 ug/mL sHLA-A*0201, excess b2m, 20 C
[9] = biological target: soluble HLA-A*0201 (sHLA-A*0201) (human)
[10] = biological target: soluble HLA-A*0201 (sHLA-A*0201) (human); remark: listed apart in the source
[11] = biological target: soluble HLA-A*0201 (sHLA-A*0201) (human); remark: listed apart in the source
[12] = biological target: soluble HLA-A*0201 (sHLA-A*0201) (human); remark: listed apart in the source
[13] = biological target: soluble HLA-A*0201 (sHLA-A*0201) (human); remark: listed apart in the source
[14] = biological target: soluble HLA-A*0201 (sHLA-A*0201) (human); remark: listed apart in the source
[15] = biological target: soluble HLA-A*0201 (sHLA-A*0201) (human); remark: listed apart in the source
[16] = biological target: soluble HLA-A*0201 (sHLA-A*0201) (human); remark: listed apart in the source
[17] = biological target: soluble HLA-A*0201 (sHLA-A*0201) (human); remark: listed apart in the source
[18] = biological target: soluble HLA-A*0201 (sHLA-A*0201) (human); remark: listed apart in the source
[19] = biological target: soluble HLA-A*0201 (sHLA-A*0201) (human); remark: listed apart in the source
[20] = biological target: soluble HLA-A*0201 (sHLA-A*0201) (human); remark: listed apart in the source
[21] = biological target: soluble HLA-A*0201 (sHLA-A*0201) (human); remark: listed apart in the source
[22] = biological target: soluble HLA-A*0201 (sHLA-A*0201) (human); remark: listed apart in the source
[23] = biological target: soluble HLA-A*0201 (sHLA-A*0201) (human); remark: listed apart in the source
[24] = biological target: soluble HLA-A*0201 (sHLA-A*0201) (human); remark: listed apart in the source
[25] = biological target: soluble HLA-A*0201 (sHLA-A*0201) (human); remark: listed apart in the source
[26] = biological target: soluble HLA-A*0201 (sHLA-A*0201) (human); assay: standardized FP competition against 1 nM FITC-P5, 50 ug/mL sHLA-A*0201, excess b2m

LVFGKEVVEV (not fully specified) [A*0201/P4, FITC-labeled peptide …]
Bmax [1]: 89.7 nM | Kd [1]: 21.8 nM | koff [2]: 0.000284 s⁻¹ | FPmax [3]: 230 mP | Kd [4]: 21.8 nM | FPmax [5]: 200 mP | Kd [6]: 28.5 nM | EC50 [7]: 283 nM | kon [8]: 9900 M⁻¹ s⁻¹

ALMDKVLK(FITC)V [A*0201/P5, FITC-labeled peptide ALMDKVL-K(FITC)-V]
EC50 [9]: 327 nM | increase of signal upon binding [10]: > 900% | maximum polarization signal [10]: 245 mP | Kd [11]: 17.3 nM | % binding [12]: 40% | Bmax [13]: 141 nM | Kd [13]: 17.3 nM | maximal FP signal [14]: 220 to 230 mP | FPmax [15]: 195 mP

DLVHFASPL (modifications not checked)
IC50 [16]: 366 µM

KLGEFYNQMM (modifications not checked)
IC50 [17]: 596 nM | IC50 [16]: 2.82 µM | log IC50 [18]: 3.31 log nM and 3.7 log nM and 3.67 log nM | IC50 [19]: 2480 nM | IC50 [20]: 7.67 µM | IC50 [21]: 3.06 µM | IC50 [22]: 10.5 µM | IC50 [23]: 2870 nM | IC50 [24]: 2.48 to 10.5 µM | log IC50 [25]: 3.08 log nM and 3.45 log nM

YLLPAIVHI (modifications not checked)
IC50 [26]: 510 nM
